Earlier results on 2 substances are cited in publication doi:10.1101/2024.09.05.611512.

As usually defined, the Kd is a measure of binding affinity in units of concentration. For orientation: Ki means the equilibrium dissociation constant of an inhibitor or competing ligand from its target.

One data set deals with S100A10 (Homo sapiens) (UniProt P60903).
For data set [1], the target named is calpain 1 & 2 (Homo sapiens) (UniProt P07384).
UniProt P07384, sequence (P07384 2-714): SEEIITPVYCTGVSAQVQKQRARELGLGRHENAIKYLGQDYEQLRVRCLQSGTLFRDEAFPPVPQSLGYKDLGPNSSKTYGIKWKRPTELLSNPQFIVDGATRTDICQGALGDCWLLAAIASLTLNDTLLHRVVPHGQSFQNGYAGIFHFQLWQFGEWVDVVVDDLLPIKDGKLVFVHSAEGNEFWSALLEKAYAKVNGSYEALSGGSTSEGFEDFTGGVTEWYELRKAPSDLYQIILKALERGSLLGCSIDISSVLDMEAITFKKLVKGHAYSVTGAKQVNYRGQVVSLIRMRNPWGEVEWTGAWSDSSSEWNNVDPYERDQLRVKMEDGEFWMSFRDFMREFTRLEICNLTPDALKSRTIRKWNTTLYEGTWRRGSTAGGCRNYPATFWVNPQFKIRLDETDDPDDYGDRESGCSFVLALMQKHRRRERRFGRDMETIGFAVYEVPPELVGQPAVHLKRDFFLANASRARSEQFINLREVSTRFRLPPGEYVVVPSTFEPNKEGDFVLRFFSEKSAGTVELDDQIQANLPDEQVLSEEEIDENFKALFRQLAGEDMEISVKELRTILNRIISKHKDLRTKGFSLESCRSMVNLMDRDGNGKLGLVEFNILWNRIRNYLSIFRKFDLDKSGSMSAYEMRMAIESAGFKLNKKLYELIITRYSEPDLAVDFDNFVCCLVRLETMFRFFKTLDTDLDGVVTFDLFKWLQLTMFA

UniProt P60903, sequence (P60903 whole entry): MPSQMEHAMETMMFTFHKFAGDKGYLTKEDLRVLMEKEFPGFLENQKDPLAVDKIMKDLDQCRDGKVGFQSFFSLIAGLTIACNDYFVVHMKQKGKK

For the substance “annexin A2 first 10-12 residues (from UniProt P07355)”, the Kd with S100A10 (Homo sapiens) was 13 nM.

“calpastatin domain I (from UniProt P20810)”: in data set [1], the Ki is 15 nM.
